Data as given in US20180303952A1.

Key:
[1] = molecular target: human CD147 on the surface of human cell lines (human) (UniProt P35613); experiment: FACS on human KYSE-70 esophageal epithelial cell line, Alexa Fluor 647 goat anti-human IgG detection
[2] = molecular target: human CD147 on the surface of human cell lines (human) (UniProt P35613); experiment: cell-based or functional assay

B1: humanized anti-human CD147 monoclonal antibody hu 3A11 Lc1/Hc1 (antibody, V domains shown)
VH: EVQLVESGGGLVQPGGSLRLSCAASGFTFSNYWMDWVRQAPGKGLEWVGEIRLKSYNYATHYAASVKGRFTISRDDSKNSVYLQMNSLKTEDTAVYYCTAAGTDYWGQGTLVTVSS
VL: DIQMTQSPSSLSASVGDRVTITCRASQSVRTDVGWYQQKPGKAPKLLIYYSSNRYTGVPSRFSGSGSGTDFTLTISSLQPEDFATYYCQQDYSSPYTFGQGTKLEIK
Kd [1]: 1.65 nM
EC50 of cytotoxicity, A253 cells (with vc-MMAE secondary antibody) [2]: < 1 nM
EC50 of cytotoxicity, BHY cells (with vc-MMAE secondary antibody) [2]: < 1 nM
EC50 of cytotoxicity, Detroit562 cells (with vc-MMAE secondary antibody) [2]: 0.008 nM
EC50 of cytotoxicity, EFO-21 cells (with vc-MMAE secondary antibody) [2]: 1.4 nM
EC50 of cytotoxicity, H69 cells (with vc-MMAE secondary antibody) [2]: 1 nM
EC50 of cytotoxicity, H292 cells (with vc-MMAE secondary antibody) [2]: 0.07 nM
EC50 of cytotoxicity, H358 cells (with vc-MMAE secondary antibody) [2]: 0.09 nM
EC50 of cytotoxicity, H520 cells (with vc-MMAE secondary antibody) [2]: 11.2 nM
EC50 of cytotoxicity, H1581 cells (with vc-MMAE secondary antibody) [2]: 0.039 nM
EC50 of cytotoxicity, H1975 cells (with vc-MMAE secondary antibody) [2]: 0.09 nM
EC50 of cytotoxicity, H2405 cells (with vc-MMAE secondary antibody) [2]: 0.3 nM
EC50 of cytotoxicity, H2444 cells (with vc-MMAE secondary antibody) [2]: 1.8 nM
EC50 of cytotoxicity, HCC 70 cells (with vc-MMAE secondary antibody) [2]: 0.94 nM
EC50 of cytotoxicity, HCC1143 cells (with vc-MMAE secondary antibody) [2]: < 1 nM
EC50 of cytotoxicity, HCC 1806 cells (with vc-MMAE secondary antibody) [2]: 0.68 nM
EC50 of cytotoxicity, HCC1937 cells (with vc-MMAE secondary antibody) [2]: < 1 nM
EC50 of cytotoxicity, HCC1954 cells (with vc-MMAE secondary antibody) [2]: < 1 nM
EC50 of cytotoxicity, HCT 116 cells (with vc-MMAE secondary antibody) [2]: 1.8 nM
EC50 of cytotoxicity, HPAC cells (with vc-MMAE secondary antibody) [2]: 0.21 nM
EC50 of cytotoxicity, HPAF2 cells (with vc-MMAE secondary antibody) [2]: < 1 nM
EC50 of cytotoxicity, KYSE70 cells (with vc-MMAE secondary antibody) [2]: 0.13 nM
EC50 of cytotoxicity, KYSE150 cells (with vc-MMAE secondary antibody) [2]: 1.6 nM
EC50 of cytotoxicity, LOVO cells (with vc-MMAE secondary antibody) [2]: < 1 nM
EC50 of cytotoxicity, LS174T cells (with vc-MMAE secondary antibody) [2]: 1 nM
EC50 of cytotoxicity, LS411N cells (with vc-MMAE secondary antibody) [2]: < 1 nM
EC50 of cytotoxicity, PC3 cells (with vc-MMAE secondary antibody) [2]: < 1 nM
EC50 of cytotoxicity, RT11-2/84 cells (with vc-MMAE secondary antibody) [2]: 1.94 nM
EC50 of cytotoxicity, SCC1 cells (with vc-MMAE secondary antibody) [2]: 0.14 nM
EC50 of cytotoxicity, SCC9 cells (with vc-MMAE secondary antibody) [2]: 0.37 nM
EC50 of cytotoxicity, SCC25 cells (with vc-MMAE secondary antibody) [2]: 0.2 nM
EC50 of cytotoxicity, SKOV3 cells (with vc-MMAE secondary antibody) [2]: 0.95 nM
EC50 of cytotoxicity, SW1417 cells (with vc-MMAE secondary antibody) [2]: 0.8 nM
EC50 of cytotoxicity, aspc1 cells (with vc-MMAE secondary antibody) [2]: 20.5 nM
EC50 of cytotoxicity, miapaca1 cells (with vc-MMAE secondary antibody) [2]: 0.65 nM
EC50 of cytotoxicity, sw48 cells (with vc-MMAE secondary antibody) [2]: < 1 nM
EC50 of cytotoxicity, sw480 cells (with vc-MMAE secondary antibody) [2]: < 1 nM
EC50 of in vitro cytotoxicity, A253 cells (with vc-MMAE secondary antibody) [2]: < 1 nM
EC50 of in vitro cytotoxicity, AGS cells (with vc-MMAE secondary antibody) [2]: 0.09 nM
EC50 of in vitro cytotoxicity, BHY cells (with vc-MMAE secondary antibody) [2]: < 1 nM
EC50 of in vitro cytotoxicity, Detroit562 cells (with vc-MMAE secondary antibody) [2]: 0.008 nM
EC50 of in vitro cytotoxicity, EFO-21 cells (with vc-MMAE secondary antibody) [2]: 1.4 nM
EC50 of in vitro cytotoxicity, ESO26 cells (with vc-MMAE secondary antibody) [2]: 0.06 nM
EC50 of in vitro cytotoxicity, FLO-1 cells (with vc-MMAE secondary antibody) [2]: 0.51 nM
EC50 of in vitro cytotoxicity, H69 cells (with vc-MMAE secondary antibody) [2]: 1 nM
EC50 of in vitro cytotoxicity, H226 cells (with vc-MMAE secondary antibody) [2]: 0.45 nM
EC50 of in vitro cytotoxicity, H292 cells (with vc-MMAE secondary antibody) [2]: 0.07 nM
EC50 of in vitro cytotoxicity, H358 cells (with vc-MMAE secondary antibody) [2]: 0.09 nM
EC50 of in vitro cytotoxicity, H520 cells (with vc-MMAE secondary antibody) [2]: 11.2 nM
EC50 of in vitro cytotoxicity, H1581 cells (with vc-MMAE secondary antibody) [2]: 0.039 nM
EC50 of in vitro cytotoxicity, H1975 cells (with vc-MMAE secondary antibody) [2]: 0.09 nM
EC50 of in vitro cytotoxicity, H2052 cells (with vc-MMAE secondary antibody) [2]: 0.03 nM
EC50 of in vitro cytotoxicity, H2405 cells (with vc-MMAE secondary antibody) [2]: 0.3 nM
EC50 of in vitro cytotoxicity, H2444 cells (with vc-MMAE secondary antibody) [2]: 1.8 nM
EC50 of in vitro cytotoxicity, H2452 cells (with vc-MMAE secondary antibody) [2]: 0.94 nM
EC50 of in vitro cytotoxicity, HCC 70 cells (with vc-MMAE secondary antibody) [2]: 0.94 nM
EC50 of in vitro cytotoxicity, HCC1143 cells (with vc-MMAE secondary antibody) [2]: < 1 nM
EC50 of in vitro cytotoxicity, HCC 1806 cells (with vc-MMAE secondary antibody) [2]: 0.68 nM
EC50 of in vitro cytotoxicity, HCC1937 cells (with vc-MMAE secondary antibody) [2]: < 1 nM
EC50 of in vitro cytotoxicity, HCC1954 cells (with vc-MMAE secondary antibody) [2]: < 1 nM
EC50 of in vitro cytotoxicity, HCT 116 cells (with vc-MMAE secondary antibody) [2]: 1.8 nM
EC50 of in vitro cytotoxicity, HPAC cells (with vc-MMAE secondary antibody) [2]: 0.21 nM
EC50 of in vitro cytotoxicity, HPAF2 cells (with vc-MMAE secondary antibody) [2]: < 1 nM
EC50 of in vitro cytotoxicity, HT29 (WIDR) cells (with vc-MMAE secondary antibody) [2]: 0.87 nM
EC50 of in vitro cytotoxicity, Hs 746T cells (with vc-MMAE secondary antibody) [2]: 0.06 nM
EC50 of in vitro cytotoxicity, KYSE70 cells (with vc-MMAE secondary antibody) [2]: 0.13 nM
EC50 of in vitro cytotoxicity, KYSE150 cells (with vc-MMAE secondary antibody) [2]: 0.88 nM
EC50 of in vitro cytotoxicity, KYSE410 cells (with vc-MMAE secondary antibody) [2]: 1.35 nM
EC50 of in vitro cytotoxicity, LOVO cells (with vc-MMAE secondary antibody) [2]: < 1 nM
EC50 of in vitro cytotoxicity, LS174T cells (with vc-MMAE secondary antibody) [2]: 1 nM
EC50 of in vitro cytotoxicity, LS411N cells (with vc-MMAE secondary antibody) [2]: < 1 nM
EC50 of in vitro cytotoxicity, MSTO-211H cells (with vc-MMAE secondary antibody) [2]: 0.37 nM
EC50 of in vitro cytotoxicity, OACM5.1 C cells (with vc-MMAE secondary antibody) [2]: 1.1 nM
EC50 of in vitro cytotoxicity, OE33 cells (with vc-MMAE secondary antibody) [2]: 0.29 nM
EC50 of in vitro cytotoxicity, PC3 cells (with vc-MMAE secondary antibody) [2]: < 1 nM
EC50 of in vitro cytotoxicity, RT11-2/84 cells (with vc-MMAE secondary antibody) [2]: 1.94 nM
EC50 of in vitro cytotoxicity, SCC1 cells (with vc-MMAE secondary antibody) [2]: 0.14 nM
EC50 of in vitro cytotoxicity, SCC9 cells (with vc-MMAE secondary antibody) [2]: 0.37 nM
EC50 of in vitro cytotoxicity, SCC25 cells (with vc-MMAE secondary antibody) [2]: 0.2 nM
EC50 of in vitro cytotoxicity, SK-GT-4 cells (with vc-MMAE secondary antibody) [2]: < 0.1 nM
EC50 of in vitro cytotoxicity, SKBR3 cells (with vc-MMAE secondary antibody) [2]: 0.38 nM
EC50 of in vitro cytotoxicity, SKOV3 cells (with vc-MMAE secondary antibody) [2]: 0.95 nM
EC50 of in vitro cytotoxicity, SNU-1 cells (with vc-MMAE secondary antibody) [2]: 0.21 nM
EC50 of in vitro cytotoxicity, SNU-5 cells (with vc-MMAE secondary antibody) [2]: 0.11 nM
EC50 of in vitro cytotoxicity, SNU-16 cells (with vc-MMAE secondary antibody) [2]: 1.14 nM
EC50 of in vitro cytotoxicity, SW1417 cells (with vc-MMAE secondary antibody) [2]: 0.8 nM
EC50 of in vitro cytotoxicity, aspc1 cells (with vc-MMAE secondary antibody) [2]: 20.5 nM
EC50 of in vitro cytotoxicity, miapaca1 cells (with vc-MMAE secondary antibody) [2]: 0.65 nM
EC50 of in vitro cytotoxicity, sw48 cells (with vc-MMAE secondary antibody) [2]: < 1 nM
EC50 of in vitro cytotoxicity, sw480 cells (with vc-MMAE secondary antibody) [2]: < 1 nM
